± gives the uncertainty stated by the source.
B1: Tudor domain-containing protein 3, residues 554 to 611; numbered along this chain, Q9H7E2 (parent)
chain: KMWKPGDECFALYWEDNKFYRAEVEALHSSGMTAVVKFIDYGNYEEVLLSNIKPIQTE

Variants of: B1
Assay: abundance fitness (aPCA) (normalised: wild type 0, dead -1); higher = more abundant; growth selection in yeast, the domain comes from the species named
Settings: Homo sapiens

Abundance fitness of substitutions, site by site:
I39: Y -0.006 ± 0.15; P -0.278 ± 0.11; W -0.361 ± 0.082; R -0.097 ± 0.056; S -0.111 ± 0.069; A -0.036 ± 0.063; Q -0.082 ± 0.093; L -0.05 ± 0.066; C -0.081 ± 0.082; G -0.361 ± 0.058; M -0.093 ± 0.078; F -0.083 ± 0.1; D -0.469 ± 0.11; N -0.255 ± 0.12; T -0.034 ± 0.083; K 0.044 ± 0.097
Y41: M -0.086 ± 0.11; C -0.019 ± 0.075; P -0.446 ± 0.091; W -0.029 ± 0.08; R 0.108 ± 0.059; G 0.07 ± 0.064; H 0.028 ± 0.099; D 0.055 ± 0.083; N 0.035 ± 0.1; L -0.045 ± 0.064; Q 0.105 ± 0.086; T 0.132 ± 0.085; I 0.076 ± 0.11; K 0.103 ± 0.088; V -0.025 ± 0.062; A 0.134 ± 0.062; S 0.118 ± 0.061; E 0.042 ± 0.087; F 0.162 ± 0.1
N43: R 0.091 ± 0.048; P -0.563 ± 0.11; F -0.052 ± 0.19; E -0.079 ± 0.061; T 0.073 ± 0.078; K 0.093 ± 0.094; W -0.059 ± 0.058; C -0.059 ± 0.085; G -0.162 ± 0.045; H -0.073 ± 0.17; V 0.035 ± 0.057; D -0.259 ± 0.14; Y 0.003 ± 0.15; S -0.045 ± 0.069; M -0.108 ± 0.071; L 0.01 ± 0.064
Y44: K 0.157 ± 0.088; Q -0.206 ± 0.12; S 0.135 ± 0.062; P -0.473 ± 0.096; R 0.171 ± 0.056; D -0.468 ± 0.089; L -0.05 ± 0.077; F 0.006 ± 0.13; H -0.13 ± 0.1; G -0.767 ± 0.062; E 0.012 ± 0.092; N -0.111 ± 0.11; C 0.097 ± 0.079; T 0.039 ± 0.081; V 0.103 ± 0.07; M 0.09 ± 0.12; A -0.065 ± 0.068; I -0.015 ± 0.13
E46: L -0.327 ± 0.076; I -0.488 ± 0.12; W -0.259 ± 0.095; H -0.308 ± 0.12; G -0.88 ± 0.095; P -0.465 ± 0.11; Q -0.055 ± 0.11; C -0.279 ± 0.099; F -0.697 ± 0.19; M -0.342 ± 0.12; K -0.205 ± 0.15; R -0.138 ± 0.075; S -0.029 ± 0.076; Y -0.324 ± 0.11; D -0.149 ± 0.087
V47: A -0.815 ± 0.097; H -0.733 ± 0.17; S -0.926 ± 0.1; C -0.296 ± 0.11; F -0.636 ± 0.17; L -0.433 ± 0.063; E -0.925 ± 0.11; R -0.937 ± 0.073; T -0.966 ± 0.17; M -0.821 ± 0.093; Q -0.714 ± 0.1; P -0.893 ± 0.11; Y -0.886 ± 0.23; W -0.846 ± 0.071; I -0.134 ± 0.12; G -0.873 ± 0.068; D -0.729 ± 0.36
E45: P -1.02 ± 0.19; F -0.768 ± 0.17; C -0.262 ± 0.079; Y -0.38 ± 0.15; A -0.041 ± 0.066; G -0.101 ± 0.054; W -0.788 ± 0.089; I -0.975 ± 0.21; M -0.586 ± 0.15; Q -0.13 ± 0.096; H -0.333 ± 0.13; T -0.398 ± 0.098; L -0.53 ± 0.08; K -0.43 ± 0.1; V -0.392 ± 0.072; R -0.107 ± 0.053; N -0.368 ± 0.17
L48: W -0.356 ± 0.071; V -0.354 ± 0.062; I -0.408 ± 0.13; Y -0.247 ± 0.12; G -0.479 ± 0.069; Q -0.008 ± 0.09; P -0.077 ± 0.08; M -0.113 ± 0.069; A -0.049 ± 0.07; H -0.152 ± 0.1; F -0.224 ± 0.11; T -0.218 ± 0.084; D -0.177 ± 0.098; E -0.136 ± 0.089; N -0.104 ± 0.11; K -0.1 ± 0.081; R -0.197 ± 0.053
F38: K -1.13 ± 0.22; T -0.987 ± 0.16; M -0.722 ± 0.15; V -0.787 ± 0.077; N -0.802 ± 0.2; P -0.941 ± 0.21; W -0.416 ± 0.074; Q -0.946 ± 0.13; Y -0.479 ± 0.13; R -0.894 ± 0.081
L49: G -0.954 ± 0.079; E -0.924 ± 0.11; D -0.886 ± 0.12; I -0.026 ± 0.085; C -0.243 ± 0.092; F -0.602 ± 0.14
D40: N -0.187 ± 0.12
G42: M -0.319 ± 0.18; V -0.926 ± 0.11; K -0.407 ± 0.14; W -0.695 ± 0.089; C -0.315 ± 0.14; R -0.607 ± 0.069; S -0.378 ± 0.13; P -0.11 ± 0.14; A -0.305 ± 0.077; H -0.395 ± 0.18; D 0.059 ± 0.1; L -0.492 ± 0.13; Q -0.345 ± 0.15; E 0.005 ± 0.097; T -0.736 ± 0.27

From the Human Domainome abundance scans (Beltran et al. 2025)
